The source of these data is the Human Domainome abundance scans (Beltran et al. 2025).

± gives the uncertainty stated by the source.

B1: Cell division cycle and apoptosis regulator protein 1, residues 625 to 674; numbered along this chain, Q8IX12 (parent)
chain: ISTPTHWSKLDPKTMKVNDLRKELESRALSSKGLKSQLIARLTKQLKVEE

The variants in the data set derive from B1. The data set is described as follows: abundance fitness (aPCA) (normalised: wild type 0, dead -1); higher = more abundant; growth selection in yeast, the domain comes from the species named. As to conditions: Homo sapiens.
Take ISTPTGWSKLDPKTMKVNDLRKELESRALSSKGLKSQLIARLTKQLKVEE [H6G]: the abundance fitness was -0.132 ± 0.042.

In the case of ISTPTTWSKLDPKTMKVNDLRKELESRALSSKGLKSQLIARLTKQLKVEE [H6T], the abundance fitness was -0.05 ± 0.048.

Regarding ISTPTYWSKLDPKTMKVNDLRKELESRALSSKGLKSQLIARLTKQLKVEE [H6Y], the abundance fitness is -0.042 ± 0.049.

For ISTPTRWSKLDPKTMKVNDLRKELESRALSSKGLKSQLIARLTKQLKVEE [H6R], the abundance fitness was -0.092 ± 0.041.

For ISTPTLWSKLDPKTMKVNDLRKELESRALSSKGLKSQLIARLTKQLKVEE [H6L], the abundance fitness stood at 0.067 ± 0.038.

With ISTPTNWSKLDPKTMKVNDLRKELESRALSSKGLKSQLIARLTKQLKVEE [H6N], the abundance fitness came out at 0.054 ± 0.045.

Turning to ISTPTDWSKLDPKTMKVNDLRKELESRALSSKGLKSQLIARLTKQLKVEE [H6D], the abundance fitness was 0.009 ± 0.048.

On to ISTPTVWSKLDPKTMKVNDLRKELESRALSSKGLKSQLIARLTKQLKVEE [H6V], for which the abundance fitness was -0.003 ± 0.044.

As to ISTPTCWSKLDPKTMKVNDLRKELESRALSSKGLKSQLIARLTKQLKVEE [H6C], the abundance fitness is -0.065 ± 0.059.

Turning to ISTPTKWSKLDPKTMKVNDLRKELESRALSSKGLKSQLIARLTKQLKVEE [H6K], the abundance fitness is -0.008 ± 0.05.

On to ISTPTIWSKLDPKTMKVNDLRKELESRALSSKGLKSQLIARLTKQLKVEE [H6I], for which the abundance fitness is -0.014 ± 0.058.

In the case of ISTPTQWSKLDPKTMKVNDLRKELESRALSSKGLKSQLIARLTKQLKVEE [H6Q], the abundance fitness is -0.062 ± 0.044.

In the case of ISTPTSWSKLDPKTMKVNDLRKELESRALSSKGLKSQLIARLTKQLKVEE [H6S], the abundance fitness was -0.056 ± 0.031.

For ISTPTPWSKLDPKTMKVNDLRKELESRALSSKGLKSQLIARLTKQLKVEE [H6P], the abundance fitness came to 0.044 ± 0.034.

Regarding ISTPTMWSKLDPKTMKVNDLRKELESRALSSKGLKSQLIARLTKQLKVEE [H6M], the abundance fitness was -0.036 ± 0.046.

In the case of ISTPTEWSKLDPKTMKVNDLRKELESRALSSKGLKSQLIARLTKQLKVEE [H6E], the abundance fitness stood at 0.062 ± 0.048.

In the case of ISTPTFWSKLDPKTMKVNDLRKELESRALSSKGLKSQLIARLTKQLKVEE [H6F], the abundance fitness was -0.037 ± 0.035.

Turning to ISTPTWWSKLDPKTMKVNDLRKELESRALSSKGLKSQLIARLTKQLKVEE [H6W], the abundance fitness is -0.135 ± 0.05.

Consider ISTPTAWSKLDPKTMKVNDLRKELESRALSSKGLKSQLIARLTKQLKVEE [H6A], for which the abundance fitness was 0.014 ± 0.036.

For ISTPTHWPKLDPKTMKVNDLRKELESRALSSKGLKSQLIARLTKQLKVEE [S8P], the abundance fitness was -0.616 ± 0.16.

Turning to ISTPTHWVKLDPKTMKVNDLRKELESRALSSKGLKSQLIARLTKQLKVEE [S8V], the abundance fitness is -0.304 ± 0.047.

ISTPTHWNKLDPKTMKVNDLRKELESRALSSKGLKSQLIARLTKQLKVEE [S8N]: the abundance fitness is -0.09 ± 0.03.

With ISTPTHWGKLDPKTMKVNDLRKELESRALSSKGLKSQLIARLTKQLKVEE [S8G], the abundance fitness was -0.036 ± 0.04.

Turning to ISTPTHWCKLDPKTMKVNDLRKELESRALSSKGLKSQLIARLTKQLKVEE [S8C], the abundance fitness is -0.007 ± 0.065.

In the case of ISTPTHWMKLDPKTMKVNDLRKELESRALSSKGLKSQLIARLTKQLKVEE [S8M], the abundance fitness was -0.254 ± 0.041.

On to ISTPTHWAKLDPKTMKVNDLRKELESRALSSKGLKSQLIARLTKQLKVEE [S8A], for which the abundance fitness was -0.081 ± 0.043.

As for ISTPTHWEKLDPKTMKVNDLRKELESRALSSKGLKSQLIARLTKQLKVEE [S8E], the abundance fitness is -0.006 ± 0.055.

In the case of ISTPTHWRKLDPKTMKVNDLRKELESRALSSKGLKSQLIARLTKQLKVEE [S8R], the abundance fitness was -0.189 ± 0.057.

As to ISTPTHWIKLDPKTMKVNDLRKELESRALSSKGLKSQLIARLTKQLKVEE [S8I], the abundance fitness is -0.407 ± 0.063.

On to ISTPTHWHKLDPKTMKVNDLRKELESRALSSKGLKSQLIARLTKQLKVEE [S8H], for which the abundance fitness was -0.074 ± 0.069.

For the variant ISTPTHWYKLDPKTMKVNDLRKELESRALSSKGLKSQLIARLTKQLKVEE [S8Y], the abundance fitness was -0.173 ± 0.063.

Consider ISTPTHWFKLDPKTMKVNDLRKELESRALSSKGLKSQLIARLTKQLKVEE [S8F], for which the abundance fitness is -0.338 ± 0.034.

On to ISTPTHWKKLDPKTMKVNDLRKELESRALSSKGLKSQLIARLTKQLKVEE [S8K], for which the abundance fitness is -0.061 ± 0.052.

Regarding ISTPTHWTKLDPKTMKVNDLRKELESRALSSKGLKSQLIARLTKQLKVEE [S8T], the abundance fitness was -0.113 ± 0.038.

For ISTPTHWDKLDPKTMKVNDLRKELESRALSSKGLKSQLIARLTKQLKVEE [S8D], the abundance fitness was -0.126 ± 0.043.

Regarding ISTPTHWWKLDPKTMKVNDLRKELESRALSSKGLKSQLIARLTKQLKVEE [S8W], the abundance fitness is -0.272 ± 0.055.

Regarding ISTPTHWQKLDPKTMKVNDLRKELESRALSSKGLKSQLIARLTKQLKVEE [S8Q], the abundance fitness is -0.395 ± 0.039.

With ISQPTHWSKLDPKTMKVNDLRKELESRALSSKGLKSQLIARLTKQLKVEE [T3Q], the abundance fitness is -0.197 ± 0.057.

ISHPTHWSKLDPKTMKVNDLRKELESRALSSKGLKSQLIARLTKQLKVEE [T3H]: the abundance fitness is -0.288 ± 0.083.

For the variant ISPPTHWSKLDPKTMKVNDLRKELESRALSSKGLKSQLIARLTKQLKVEE [T3P], the abundance fitness is -0.162 ± 0.055.

For the variant ISKPTHWSKLDPKTMKVNDLRKELESRALSSKGLKSQLIARLTKQLKVEE [T3K], the abundance fitness came to 0.042 ± 0.052.

Turning to ISRPTHWSKLDPKTMKVNDLRKELESRALSSKGLKSQLIARLTKQLKVEE [T3R], the abundance fitness is -0.076 ± 0.034.

On to ISLPTHWSKLDPKTMKVNDLRKELESRALSSKGLKSQLIARLTKQLKVEE [T3L], for which the abundance fitness is -0.037 ± 0.041.

Turning to ISMPTHWSKLDPKTMKVNDLRKELESRALSSKGLKSQLIARLTKQLKVEE [T3M], the abundance fitness is -0.004 ± 0.06.

With ISIPTHWSKLDPKTMKVNDLRKELESRALSSKGLKSQLIARLTKQLKVEE [T3I], the abundance fitness was -0.114 ± 0.057.

On to ISYPTHWSKLDPKTMKVNDLRKELESRALSSKGLKSQLIARLTKQLKVEE [T3Y], for which the abundance fitness turned out to be 0.124 ± 0.07.

Consider ISWPTHWSKLDPKTMKVNDLRKELESRALSSKGLKSQLIARLTKQLKVEE [T3W], for which the abundance fitness was -0.252 ± 0.049.

As for ISTPTHMSKLDPKTMKVNDLRKELESRALSSKGLKSQLIARLTKQLKVEE [W7M], the abundance fitness is -0.122 ± 0.037.

For the variant ISTPTHISKLDPKTMKVNDLRKELESRALSSKGLKSQLIARLTKQLKVEE [W7I], the abundance fitness was -0.258 ± 0.051.

Consider ISTPTHRSKLDPKTMKVNDLRKELESRALSSKGLKSQLIARLTKQLKVEE [W7R], for which the abundance fitness is -0.178 ± 0.036.

For the variant ISTPTHTSKLDPKTMKVNDLRKELESRALSSKGLKSQLIARLTKQLKVEE [W7T], the abundance fitness is -0.103 ± 0.035.

Consider ISTPTHNSKLDPKTMKVNDLRKELESRALSSKGLKSQLIARLTKQLKVEE [W7N], for which the abundance fitness is -0.29 ± 0.076.
